Experimental data taken from article PMC11098500 (PLOS Pathogens, 2024).

Target: SARS-CoV-2 RBD (residues 319-529), His-tagged (SARS-CoV-2 (prototypic strain), UniProt P0DTC2 319-529)
Assay: SPR
Conditions: both partners purified

B1: raccoon dog ACE2 ectodomain (residues 1-614), Fc-tagged (Fc fusion)
chain: QSTEDLVNTFLEKFNYEAEELSYQSSLASWNYNTNITDENLQKMNNAGAKWSAFYEEQSKLAKTYPLEEIQDSTVKRQLRALQHSGSSVLSADKNQRLNTILNSMSTIYSTGKACNPSNPQECLLLEPGLDDIMENSKDYNERLWAWEGWRSEVGKQLRPLYEEYVALKNEMARANNYEDYGDYWRGDYEEEWENGYNYSRNQLIDDVEHTFTQIMPLYQHLHAYVRTKLMDTYPSYISPTGCLPAHLLGDMWGRFWTNLYPLTVPFGQKPNIDVTNAMVNQSWDARKIFKEAEKFFVSVGLPNMTQGFWENSMLTEPSDSWKVVCHPTAWDLGRGDFRIKMCTKVTMDDFLTAHHEMGHIQYDMAYAAQPFLLRNGANEGFHEAVGEIMSLSAATPNHLKNIGLLPPSFFEDSETEINFLLKQALTIVGTLPFTYMLEKWRWMVFKGEIPKDQWMKTWWEMKRNIVGVVEPVPHDETYCDPASLFHVANDYSFIRYYTRTIYQFQFQEALCQIAKHEGPLHKCDISNSSEAGQKLLEMLKLGKSKPWTYALEIVVGAKNMDVRPLLNYFEPLFTWLKEQNRNSFVGWNTDWSPYAD
B1 gave a Kd of 399 nM.
